In article PMC7235859, “Structural and Functional Peculiarities of α-Crystallin” (Biology, 2020):

Target: the molecule itself
Test: negative-stain electron microscopy; 0.2 mg/mL, incubated 30 min at 37 °C in 20 mM Tris-HCl pH 7.5, 100 mM NaCl, 1 mM EDTA; 1% uranyl acetate; preparations from cortex, from nucleus and from Sigma; 12–14 nm particles used for 3D reconstruction

B1: native α-crystallin from bovine eye lens (complex)
chain 1: MDIAIQHPWFKRTLGPFYPSRLFDQFFGEGLFEYDLLPFLSSTISPYYRQSLFRTVLDSGISEVRSDRDKFVIFLDVKHFSPEDLTVKVQEDFVEIHGKHNERQDDHGYISREFHRRYRLPSNVDQSALSCSLSADGMLTFSGPKIPSGVDAGHSERAIPVSREEKPSSAPSS
chain 2: MDIAIHHPWIRRPFFPFHSPSRLFDQFFGEHLLESDLFPASTSLSPFYLRPPSFLRAPSWIDTGLSEMRLEKDRFSVNLDVKHFSPEELKVKVLGDVIEVHGKHEERQDEHGFISREFHRKYRIPADVDPLAITSSLSSDGVLTVNGPRKQASGPERTIPITREEKPAVTAAPKK
notes: αA-crystallin (HSPB4), bovine, isolated from eye lens as part of native α-crystallin; αB-crystallin (HSPB5), bovine, isolated from eye lens as part of native α-crystallin; Hetero-oligomeric mixture of αA- and αB-crystallin that was not separated; The number of subunits and the αA:αB ratio were not measured here (3:1 and about 42 monomers are cited); also called natural α-crystallin; authentic …
Q: Does B1 bind?
A: binds
